Data as given in patent US20210388087A1 (Chugai, published 2021).

Target: T1, CD3 epsilon homodimer protein (UniProt P07766 23-126)
T1 construct: also called CD3 (CD3 epsilon)
Assay: SPR, CD3 epsilon homodimer on chip, one-arm antibody as analyte;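 further: surface plasmon resonance at 25 °C with CD3 epsilon homodimer amine-coupled to a CM4 sensor chip, antibody injected as analyte, HBS-EP+ as running buffer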

T1 sequence (P07766 23-126): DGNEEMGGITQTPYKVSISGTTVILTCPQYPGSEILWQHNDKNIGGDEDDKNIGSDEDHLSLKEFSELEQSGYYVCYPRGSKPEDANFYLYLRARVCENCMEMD

| Binder | KD ratio (KD of CE115HA000/KD of altered form) |
| --- | --- |
| CE115HA000 N31S (antibody, human IgG1, kappa, L234A L235A, N297A, name in Kabat numbering, one-arm antibody) heavy: QVQLVESGGGVVQPGRSLRLSCAASGFTFSSAWMHWVRQAPGKGLEWVAQIKAKSNNYATYYAESVKGRFTISRDDSKNSLYLQMNSLKTEDTAVYYCRYVHYGAYYGVDAWGQGTTVTVSSASTKGPSVFPLAPSSKSTSGGTAALGCLVKDYFPEPVTVSWNSGALTSGVHTFPAVLQSSGLYSLSSVVTVPSSSLGTQTYICNVNHKPSNTKVDKKVEPKSCDKTHTCPPCPAPEAAGGPSVFLFPPKPKDTLMISRTPEVTCVVVDVSHEDPEVKFNWYVDGVEVHNAKTKPREEQYASTYRVVSVLTVLHQDWLNGKEYKCKVSNKALPAPIEKTISKAKGQPREPQVYTLPPSRCELTKNQVSLSCAVKGFYPSDIAVEWESNGQPENNYKTTPPVLDSDGSFFLVSKLTVDKSRWQQGNVFSCSVMHEALHNHYTQKSLSLSPDYKDDDDK EPKSSDKTHTCPPCPAPELLGGPSVFLFPPKPKDTLMISRTPEVTCVVVDVSHEDPEVKFNWYVDGVEVHNAKTKPREEQYNSTYRVVSVLTVLHQDWLNGKEYKCKVSNKALPAPIEKTISKAKGQPREPQVCTLPPSRDELTKNQVSLWCLVKGFYPSDIAVEWESNGQPENNYKTTPPVLDSDGSFFLYSKLTVDKSRWQQGNVFSCSVMHEALHNRYTQKSLSLSP light: DIVMTQSPLSLPVTPGEPASISCRSSQSLVHSNRNTYLHWYQQKPGQAPRLLIYKVSNRFSGVPDRFSGSGSGTDFTLKISRVEAEDVGVYYCGQGTQVPYTFGQGTKLEIKRTVAAPSVFIFPPSDEQLKSGTASVVCLLNNFYPREAKVQWKVDNALQSGNSQESVTEQDSKDSTYSLSSTLTLSKADYEKHKVYACEVTHQGLSSPVTKSFNRGEC | 0.67 |
| CE115HA000 N31W (antibody, human IgG1, kappa, L234A L235A, N297A, name in Kabat numbering, one-arm antibody) heavy: QVQLVESGGGVVQPGRSLRLSCAASGFTFSWAWMHWVRQAPGKGLEWVAQIKAKSNNYATYYAESVKGRFTISRDDSKNSLYLQMNSLKTEDTAVYYCRYVHYGAYYGVDAWGQGTTVTVSSASTKGPSVFPLAPSSKSTSGGTAALGCLVKDYFPEPVTVSWNSGALTSGVHTFPAVLQSSGLYSLSSVVTVPSSSLGTQTYICNVNHKPSNTKVDKKVEPKSCDKTHTCPPCPAPEAAGGPSVFLFPPKPKDTLMISRTPEVTCVVVDVSHEDPEVKFNWYVDGVEVHNAKTKPREEQYASTYRVVSVLTVLHQDWLNGKEYKCKVSNKALPAPIEKTISKAKGQPREPQVYTLPPSRCELTKNQVSLSCAVKGFYPSDIAVEWESNGQPENNYKTTPPVLDSDGSFFLVSKLTVDKSRWQQGNVFSCSVMHEALHNHYTQKSLSLSPDYKDDDDK EPKSSDKTHTCPPCPAPELLGGPSVFLFPPKPKDTLMISRTPEVTCVVVDVSHEDPEVKFNWYVDGVEVHNAKTKPREEQYNSTYRVVSVLTVLHQDWLNGKEYKCKVSNKALPAPIEKTISKAKGQPREPQVCTLPPSRDELTKNQVSLWCLVKGFYPSDIAVEWESNGQPENNYKTTPPVLDSDGSFFLYSKLTVDKSRWQQGNVFSCSVMHEALHNRYTQKSLSLSP light: DIVMTQSPLSLPVTPGEPASISCRSSQSLVHSNRNTYLHWYQQKPGQAPRLLIYKVSNRFSGVPDRFSGSGSGTDFTLKISRVEAEDVGVYYCGQGTQVPYTFGQGTKLEIKRTVAAPSVFIFPPSDEQLKSGTASVVCLLNNFYPREAKVQWKVDNALQSGNSQESVTEQDSKDSTYSLSSTLTLSKADYEKHKVYACEVTHQGLSSPVTKSFNRGEC | 1.07 |
